The values that follow come from publication PMC11983205.

This data set addresses CD33 (UniProt P20138 18-259). In words: LOCK displacement, CHA/Cas12a fluorescence.

CD33, sequence (P20138 18-259): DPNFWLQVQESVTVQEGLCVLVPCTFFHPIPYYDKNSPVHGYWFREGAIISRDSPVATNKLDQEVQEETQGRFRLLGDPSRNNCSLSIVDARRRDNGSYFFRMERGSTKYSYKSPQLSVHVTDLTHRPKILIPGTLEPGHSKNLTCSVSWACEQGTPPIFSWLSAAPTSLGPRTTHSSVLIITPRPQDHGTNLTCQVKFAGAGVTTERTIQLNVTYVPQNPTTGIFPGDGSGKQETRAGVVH

B1: CD33 YES gate DNA1/LOCK (mixed)
DNA 1: TAGCTTATCAGACTGATGTTGATACCAGTGCGATGCTCAGCACGCTTATAGGGGCTGGACAAAATTCTACCCAGCCTTTTCTGACGCATTCGGTTGAC
DNA 2: CACTGGTATCAACATCAGTC
For B1, the binding result is given as “binds”.
